The record followed here is patent US20210101944A1 (WEST CHINA HOSPITAL SICHUAN UNIVERSITY, published 2021).

Assay [1] has as its target T1, death receptor fusion protein DR4-Fc (UniProt O00220 24-239, limits assumed).
T1 construct: Captured on a protein A-coated BLI probe; also called TRAIL R1; not shown: Fc part
In words: BLI, DR4-Fc on protein A-coated probe; TRAIL01 to DR4-Fc. (In BLI a coated tip is dipped into the sample, and binding shifts an interference pattern.)

For assay [2], the target named is T2, death receptor fusion protein DR5-Fc (UniProt O14763 56-182, limits assumed).
T2 construct: Captured on a protein A-coated BLI probe; also called TRAIL R2; not shown: Fc part
In words: Biolayer interferometry, DR5-Fc captured on a protein A probe, TRAIL01 at 5-250 nM.

Assay [3] concerns the target T2, death receptor fusion protein DR5-Fc. Put plainly: BLI, DR5-Fc on protein A-coated probe; TRAIL01 to DR5-Fc.
Method: (§1) The binding constant Ka and the dissociation constant Kd were determined, and then the affinity KD was calculated according to the formula (KD=Kd/Ka).
The target in assay [4] is T1, death receptor fusion protein DR4-Fc. Put plainly: BLI, DR4-Fc on protein A-coated probe; IgBD-TRAIL01 to DR4-Fc.
Method: as §1
For assay [5], the target named is T2, death receptor fusion protein DR5-Fc. In words: BLI, DR5-Fc on protein A-coated probe; IgBD-TRAIL01 to DR5-Fc.
Method: as §1
The target is the same in assay [6]. In words: Biolayer interferometry, DR5-Fc captured on a protein A probe, IgBD-TRAIL01 at 10-500 nM.
Method: as §1
Assay [7] concerns the target T3, Human IgG (human).
T3 construct: also called hIgG
Put plainly: ELISA, coated hIgG, pH 7.4, detection with biotin-labeled anti-TRAIL antibody and HRP-streptavidin. On the technique in general: An ELISA detects its analyte on a solid surface through an enzyme-linked reagent.
Method: 1) ELISA Human IgG (hIgG) or mouse IgG (mIgG) was coated in a well plate for ELISA. […] After incubating at 37° C. for 1 h, excess protein was removed.

Assay [8] has as its target T1, death receptor fusion protein DR4-Fc. Put plainly: BLI, DR4-Fc on protein A-coated probe (method of Example 3).
Method: as §1
Assay [9] has as its target T2, death receptor fusion protein DR5-Fc. Put plainly: BLI, DR5-Fc on protein A-coated probe (method of Example 3).
Method: as §1

T2 sequence (O14763 56-182 limits assumed): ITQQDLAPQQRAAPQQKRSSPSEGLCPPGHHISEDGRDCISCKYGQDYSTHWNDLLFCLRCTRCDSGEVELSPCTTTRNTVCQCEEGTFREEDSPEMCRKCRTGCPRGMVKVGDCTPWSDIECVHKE
T1 sequence (O00220 24-239 limits assumed): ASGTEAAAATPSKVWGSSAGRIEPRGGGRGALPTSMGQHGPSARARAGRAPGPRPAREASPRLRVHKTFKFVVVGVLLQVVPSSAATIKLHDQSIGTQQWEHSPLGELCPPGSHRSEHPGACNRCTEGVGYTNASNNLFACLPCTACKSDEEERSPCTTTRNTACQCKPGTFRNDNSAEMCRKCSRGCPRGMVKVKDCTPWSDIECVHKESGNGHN

B1: TRAIL01 (ligand)
chain: VRERGPQRVAAHITGTRGRSNTLSSPNSKNEKALGRKINSWESSRSGHSFLSNLHLRNGELVIQEKGFYYIYSQTYFRFQEEIKENTKNDKQMVQYIYKYTSYPDPILLMKSARNSCWSKDAEYGLYSIYQGGLFELKKDDRIFVSVTNEHLIDMDHEASFFGAFLVG
notes: Control protein without IgBD; also called TRAIL1
On to B1, for which the Kd (as a rule, the concentration at which binding is half-saturated) in [1] stood at 4 nM; in assay [2], 1.43 nM; in [3] it was 1.5 nM.

B2: fusion protein IgBD-TRAIL01 (other)
chain: TTYKLVINGKTLKGETTTKAVDAETAAAAFAQYARRNGVDGVWTYDDATKTFTVTEGGGGSGGGGSGGGGSVRERGPQRVAAHITGTRGRSNTLSSPNSKNEKALGRKINSWESSRSGHSFLSNLHLRNGELVIQEKGFYYIYSQTYFRFQEEIKENTKNDKQMVQYIYKYTSYPDPILLMKSARNSCWSKDAEYGLYSIYQGGLFELKKDDRIFVSVTNEHLIDMDHEASFFGAFLVG
notes: also called IgBD-TRAIL1
With B2, the Kd was 4.33 nM in assay [4], 1.43 nM in [5] and 1.5 nM in assay [6]. Further, the EC50 (read off the curve) (commonly the concentration needed to bring the measured effect to its halfway point) in assay [7] was roughly 0.4 nM.

B3: fusion protein IgBD-TRAIL02 (other)
chain: TTYKLVINGKTLKGETTTKAVDAETAEKAFKQYANDNGVDGVWTYDDATKTFTVTEGGGGSGGGGSGGGGSVRERGPQRVAAHITGTRGRSNTLSSPNSKNEKALGRKINSWESSRSGHSFLSNLHLRNGELVIQEKGFYYIYSQTYFRFQEEIKENTKNDKQMVQYIYKYTSYPDPILLMKSARNSCWSKDAEYGLYSIYQGGLFELKKDDRIFVSVTNEHLIDMDHEASFFGAFLVG
notes: No tag is stated
On to B3, for which the dissociation constant (Kd) amounted to 3.96 nM in assay [8] and 1.79 nM in assay [9].
